# T1: FLAG-Spp1 (wild type) (S. cerevisiae, UniProt Q03012 1-353)
# T1 sequence: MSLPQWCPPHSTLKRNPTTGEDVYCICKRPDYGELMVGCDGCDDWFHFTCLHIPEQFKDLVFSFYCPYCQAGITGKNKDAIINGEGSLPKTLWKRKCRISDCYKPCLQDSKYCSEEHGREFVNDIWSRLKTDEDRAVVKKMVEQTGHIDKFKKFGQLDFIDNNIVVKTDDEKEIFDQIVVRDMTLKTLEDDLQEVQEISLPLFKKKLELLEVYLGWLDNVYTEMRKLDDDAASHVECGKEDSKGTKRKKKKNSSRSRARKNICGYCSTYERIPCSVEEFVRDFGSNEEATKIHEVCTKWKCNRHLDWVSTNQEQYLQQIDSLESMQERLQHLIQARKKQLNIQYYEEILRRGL
# T2: FLAG-Swd1 (S. cerevisiae, UniProt P39706 1-426)
# T2 sequence: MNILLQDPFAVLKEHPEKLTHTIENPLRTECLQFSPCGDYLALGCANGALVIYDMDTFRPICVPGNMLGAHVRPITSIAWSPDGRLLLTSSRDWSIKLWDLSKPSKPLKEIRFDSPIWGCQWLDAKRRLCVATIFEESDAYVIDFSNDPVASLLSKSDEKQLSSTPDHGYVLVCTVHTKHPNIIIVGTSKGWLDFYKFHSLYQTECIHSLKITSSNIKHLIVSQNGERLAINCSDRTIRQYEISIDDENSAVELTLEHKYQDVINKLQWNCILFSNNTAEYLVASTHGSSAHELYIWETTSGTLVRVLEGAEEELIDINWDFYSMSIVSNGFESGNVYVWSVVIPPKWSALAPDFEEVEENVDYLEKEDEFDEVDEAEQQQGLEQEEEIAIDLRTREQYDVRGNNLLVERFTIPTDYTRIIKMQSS
# T3: FLAG-Swd2 (S. cerevisiae, UniProt P36104 1-329)
# T3 sequence: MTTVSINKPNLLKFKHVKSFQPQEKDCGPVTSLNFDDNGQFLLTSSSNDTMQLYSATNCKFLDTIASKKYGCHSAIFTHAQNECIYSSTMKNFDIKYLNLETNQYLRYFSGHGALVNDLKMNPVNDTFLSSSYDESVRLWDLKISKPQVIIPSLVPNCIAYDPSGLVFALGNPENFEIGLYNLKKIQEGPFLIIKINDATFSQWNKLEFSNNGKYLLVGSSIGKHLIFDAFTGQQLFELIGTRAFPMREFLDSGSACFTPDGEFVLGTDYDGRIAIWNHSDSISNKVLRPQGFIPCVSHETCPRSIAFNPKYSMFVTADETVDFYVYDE
# B1: GST-tagged n-SET fragment (Set1 residues 762–937) (domain or fragment)
# chain: MDLQNAIKDEEDMLILKQLLSTYTPTVTPETSAALEYKIWQSRRKVLEEEKASDWQIELNGTLFDSELQPGSSFKAEGFRKIADKLKINYLPHRRRVHQPLNTVNIHNERNEYTPELCQREESSNKEPSDSVPQEVSSSRDNRASNRRFQQDIEAQKAAIGTESELLSLNQLNKRK
# B2: GST-tagged Set1 fragment, residues 1–123 (domain or fragment)
# chain: MSNYYRRAHASSGSYRQPQEQPQYSRSGHYQYSNGHSHQQYSSQYNQRRRYNHNDGTRRRYNDDRPHSSNNASTRQYYATNNSQSGPYVNKKSDISSRRGMSQSRYSNSNVHNTLASSSGSLP
# B3: GST-tagged Set1 fragment, residues 124–229 (domain or fragment)
# chain: TESALLLQQRPPSVLRYNTDNLKSKFHYFDPIKGEFFNKDKMLSWKATDKEFSETGYYVVKELQDGQFKFKIKHRHPEIKASDPRNENGIMTSGKVATHRKCRNSL
# How the values were obtained:
# Assay in all cases: pull-down
# [1] = biological target: T1, FLAG-Spp1 (wild type)
# [2] = biological target: T2, FLAG-Swd1
# [3] = biological target: T3, FLAG-Swd2
binder,measurement,setting,value
B1,binding result,[1],binds
B2,binding result,[2],binds
B3,binding result,[3],binds

# — PMC6265457 (Nucleic Acids Research, 2018)
